Residue numbers refer to the chain shown, from its start.
T1: human GLP-2 receptor (hGLP2-R) (human, UniProt O95838 1-553)
T1 sequence (looked up): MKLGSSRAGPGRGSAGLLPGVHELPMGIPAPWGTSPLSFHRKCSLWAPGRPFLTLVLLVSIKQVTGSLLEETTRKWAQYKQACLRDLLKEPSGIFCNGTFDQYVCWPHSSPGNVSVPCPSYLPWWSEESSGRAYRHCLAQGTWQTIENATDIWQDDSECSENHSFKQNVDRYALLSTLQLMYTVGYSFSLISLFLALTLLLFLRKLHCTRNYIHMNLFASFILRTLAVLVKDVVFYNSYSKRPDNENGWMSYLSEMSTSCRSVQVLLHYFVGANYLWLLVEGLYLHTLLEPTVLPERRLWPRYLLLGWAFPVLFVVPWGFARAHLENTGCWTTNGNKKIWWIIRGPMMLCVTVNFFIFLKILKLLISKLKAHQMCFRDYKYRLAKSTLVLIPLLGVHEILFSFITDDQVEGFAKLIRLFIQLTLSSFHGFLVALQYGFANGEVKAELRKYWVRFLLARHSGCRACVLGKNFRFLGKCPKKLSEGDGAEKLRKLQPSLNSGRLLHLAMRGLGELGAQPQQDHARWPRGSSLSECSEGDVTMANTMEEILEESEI

B1: Compound 28 (peptide)
peptide: HXEGSFTSELATILDXQAARDFIAWLILHKITD
HELM: PEPTIDE1{H.[Aib].E.G.S.F.T.S.E.L.A.T.I.L.D.K.Q.A.A.R.D.F.I.A.W.L.I.L.H.K.I.T.D}|PEPTIDE2{[O=C(O)CCCCCCCCCCCCCCCCC(=O)[*:2]].[gGlu]}$PEPTIDE1,PEPTIDE2,16:R3-2:R2$$$V2.0
SMILES: CC[C@H](C)[C@H](NC(=O)[C@H](Cc1ccccc1)NC(=O)[C@H](CC(=O)O)NC(=O)[C@H](CCCNC(=N)N)NC(=O)[C@H](C)NC(=O)[C@H](C)NC(=O)[C@H](CCC(N)=O)NC(=O)[C@H](CCCCNC(=O)CC[C@H](NC(=O)CCCCCCCCCCCCCCCCC(=O)O)C(=O)O)NC(=O)[C@H](CC(=O)O)NC(=O)[C@H](CC(C)C)NC(=O)[C@@H](NC(=O)[C@@H](NC(=O)[C@H](C)NC(=O)[C@H](CC(C)C)NC(=O)[C@H](CCC(=O)O)NC(=O)[C@H](CO)NC(=O)[C@@H](NC(=O)[C@H](Cc1ccccc1)NC(=O)[C@H](CO)NC(=O)CNC(=O)[C@H](CCC(=O)O)NC(=O)C(C)(C)NC(=O)[C@@H](N)Cc1c[nH]cn1)[C@@H](C)O)[C@@H](C)O)[C@@H](C)CC)C(=O)N[C@@H](C)C(=O)N[C@@H](Cc1c[nH]c2ccccc12)C(=O)N[C@@H](CC(C)C)C(=O)N[C@H](C(=O)N[C@@H](CC(C)C)C(=O)N[C@@H](Cc1c[nH]cn1)C(=O)N[C@@H](CCCCN)C(=O)N[C@H](C(=O)N[C@H](C(=O)N[C@@H](CC(=O)O)C(=O)O)[C@@H](C)O)[C@@H](C)CC)[C@@H](C)CC
B2: reference compound B (peptide)
peptide: B1 peptide with T7S, L28Q
HELM: PEPTIDE1{H.[Aib].E.G.S.F.S.S.E.L.A.T.I.L.D.K.Q.A.A.R.D.F.I.A.W.L.I.Q.H.K.I.T.D}|PEPTIDE2{[O=C(O)CCCCCCCCCCCCCCCCC(=O)[*:2]].[gGlu]}$PEPTIDE1,PEPTIDE2,16:R3-2:R2$$$V2.0
SMILES: CC[C@H](C)[C@H](NC(=O)[C@H](Cc1ccccc1)NC(=O)[C@H](CC(=O)O)NC(=O)[C@H](CCCNC(=N)N)NC(=O)[C@H](C)NC(=O)[C@H](C)NC(=O)[C@H](CCC(N)=O)NC(=O)[C@H](CCCCNC(=O)CC[C@H](NC(=O)CCCCCCCCCCCCCCCCC(=O)O)C(=O)O)NC(=O)[C@H](CC(=O)O)NC(=O)[C@H](CC(C)C)NC(=O)[C@@H](NC(=O)[C@@H](NC(=O)[C@H](C)NC(=O)[C@H](CC(C)C)NC(=O)[C@H](CCC(=O)O)NC(=O)[C@H](CO)NC(=O)[C@H](CO)NC(=O)[C@H](Cc1ccccc1)NC(=O)[C@H](CO)NC(=O)CNC(=O)[C@H](CCC(=O)O)NC(=O)C(C)(C)NC(=O)[C@@H](N)Cc1c[nH]cn1)[C@@H](C)O)[C@@H](C)CC)C(=O)N[C@@H](C)C(=O)N[C@@H](Cc1c[nH]c2ccccc12)C(=O)N[C@@H](CC(C)C)C(=O)N[C@H](C(=O)N[C@@H](CCC(N)=O)C(=O)N[C@@H](Cc1c[nH]cn1)C(=O)N[C@@H](CCCCN)C(=O)N[C@H](C(=O)N[C@H](C(=O)N[C@@H](CC(=O)O)C(=O)O)[C@@H](C)O)[C@@H](C)CC)[C@@H](C)CC
B3: Compound 29 (peptide)
peptide: B1 peptide with L28K
HELM: PEPTIDE1{H.[Aib].E.G.S.F.T.S.E.L.A.T.I.L.D.K.Q.A.A.R.D.F.I.A.W.L.I.K.H.K.I.T.D}|PEPTIDE2{[O=C(O)CCCCCCCCCCCCCCCCC(=O)[*:2]].[gGlu]}$PEPTIDE1,PEPTIDE2,16:R3-2:R2$$$V2.0
SMILES: CC[C@H](C)[C@H](NC(=O)[C@H](Cc1ccccc1)NC(=O)[C@H](CC(=O)O)NC(=O)[C@H](CCCNC(=N)N)NC(=O)[C@H](C)NC(=O)[C@H](C)NC(=O)[C@H](CCC(N)=O)NC(=O)[C@H](CCCCNC(=O)CC[C@H](NC(=O)CCCCCCCCCCCCCCCCC(=O)O)C(=O)O)NC(=O)[C@H](CC(=O)O)NC(=O)[C@H](CC(C)C)NC(=O)[C@@H](NC(=O)[C@@H](NC(=O)[C@H](C)NC(=O)[C@H](CC(C)C)NC(=O)[C@H](CCC(=O)O)NC(=O)[C@H](CO)NC(=O)[C@@H](NC(=O)[C@H](Cc1ccccc1)NC(=O)[C@H](CO)NC(=O)CNC(=O)[C@H](CCC(=O)O)NC(=O)C(C)(C)NC(=O)[C@@H](N)Cc1c[nH]cn1)[C@@H](C)O)[C@@H](C)O)[C@@H](C)CC)C(=O)N[C@@H](C)C(=O)N[C@@H](Cc1c[nH]c2ccccc12)C(=O)N[C@@H](CC(C)C)C(=O)N[C@H](C(=O)N[C@@H](CCCCN)C(=O)N[C@@H](Cc1c[nH]cn1)C(=O)N[C@@H](CCCCN)C(=O)N[C@H](C(=O)N[C@H](C(=O)N[C@@H](CC(=O)O)C(=O)O)[C@@H](C)O)[C@@H](C)CC)[C@@H](C)CC
B4: Compound 31 (peptide)
peptide: B1 peptide with L28S
HELM: PEPTIDE1{H.[Aib].E.G.S.F.T.S.E.L.A.T.I.L.D.K.Q.A.A.R.D.F.I.A.W.L.I.S.H.K.I.T.D}|PEPTIDE2{[O=C(O)CCCCCCCCCCCCCCCCC(=O)[*:2]].[gGlu]}$PEPTIDE1,PEPTIDE2,16:R3-2:R2$$$V2.0
SMILES: CC[C@H](C)[C@H](NC(=O)[C@H](Cc1ccccc1)NC(=O)[C@H](CC(=O)O)NC(=O)[C@H](CCCNC(=N)N)NC(=O)[C@H](C)NC(=O)[C@H](C)NC(=O)[C@H](CCC(N)=O)NC(=O)[C@H](CCCCNC(=O)CC[C@H](NC(=O)CCCCCCCCCCCCCCCCC(=O)O)C(=O)O)NC(=O)[C@H](CC(=O)O)NC(=O)[C@H](CC(C)C)NC(=O)[C@@H](NC(=O)[C@@H](NC(=O)[C@H](C)NC(=O)[C@H](CC(C)C)NC(=O)[C@H](CCC(=O)O)NC(=O)[C@H](CO)NC(=O)[C@@H](NC(=O)[C@H](Cc1ccccc1)NC(=O)[C@H](CO)NC(=O)CNC(=O)[C@H](CCC(=O)O)NC(=O)C(C)(C)NC(=O)[C@@H](N)Cc1c[nH]cn1)[C@@H](C)O)[C@@H](C)O)[C@@H](C)CC)C(=O)N[C@@H](C)C(=O)N[C@@H](Cc1c[nH]c2ccccc12)C(=O)N[C@@H](CC(C)C)C(=O)N[C@H](C(=O)N[C@@H](CO)C(=O)N[C@@H](Cc1c[nH]cn1)C(=O)N[C@@H](CCCCN)C(=O)N[C@H](C(=O)N[C@H](C(=O)N[C@@H](CC(=O)O)C(=O)O)[C@@H](C)O)[C@@H](C)CC)[C@@H](C)CC
B5: Compound 30 (peptide)
peptide: B1 peptide with L28R
HELM: PEPTIDE1{H.[Aib].E.G.S.F.T.S.E.L.A.T.I.L.D.K.Q.A.A.R.D.F.I.A.W.L.I.R.H.K.I.T.D}|PEPTIDE2{[O=C(O)CCCCCCCCCCCCCCCCC(=O)[*:2]].[gGlu]}$PEPTIDE1,PEPTIDE2,16:R3-2:R2$$$V2.0
SMILES: CC[C@H](C)[C@H](NC(=O)[C@H](Cc1ccccc1)NC(=O)[C@H](CC(=O)O)NC(=O)[C@H](CCCNC(=N)N)NC(=O)[C@H](C)NC(=O)[C@H](C)NC(=O)[C@H](CCC(N)=O)NC(=O)[C@H](CCCCNC(=O)CC[C@H](NC(=O)CCCCCCCCCCCCCCCCC(=O)O)C(=O)O)NC(=O)[C@H](CC(=O)O)NC(=O)[C@H](CC(C)C)NC(=O)[C@@H](NC(=O)[C@@H](NC(=O)[C@H](C)NC(=O)[C@H](CC(C)C)NC(=O)[C@H](CCC(=O)O)NC(=O)[C@H](CO)NC(=O)[C@@H](NC(=O)[C@H](Cc1ccccc1)NC(=O)[C@H](CO)NC(=O)CNC(=O)[C@H](CCC(=O)O)NC(=O)C(C)(C)NC(=O)[C@@H](N)Cc1c[nH]cn1)[C@@H](C)O)[C@@H](C)O)[C@@H](C)CC)C(=O)N[C@@H](C)C(=O)N[C@@H](Cc1c[nH]c2ccccc12)C(=O)N[C@@H](CC(C)C)C(=O)N[C@H](C(=O)N[C@@H](CCCNC(=N)N)C(=O)N[C@@H](Cc1c[nH]cn1)C(=O)N[C@@H](CCCCN)C(=O)N[C@H](C(=O)N[C@H](C(=O)N[C@@H](CC(=O)O)C(=O)O)[C@@H](C)O)[C@@H](C)CC)[C@@H](C)CC
B6: Compound 32 (peptide)
peptide: B1 peptide with I27Q, L28Q
HELM: PEPTIDE1{H.[Aib].E.G.S.F.T.S.E.L.A.T.I.L.D.K.Q.A.A.R.D.F.I.A.W.L.Q.Q.H.K.I.T.D}|PEPTIDE2{[CCCCCCCCCCCCCCCC(=O)[*:2]].[bAla]}$PEPTIDE1,PEPTIDE2,16:R3-2:R2$$$V2.0
SMILES: CCCCCCCCCCCCCCCC(=O)NCCC(=O)NCCCC[C@H](NC(=O)[C@H](CC(=O)O)NC(=O)[C@H](CC(C)C)NC(=O)[C@@H](NC(=O)[C@@H](NC(=O)[C@H](C)NC(=O)[C@H](CC(C)C)NC(=O)[C@H](CCC(=O)O)NC(=O)[C@H](CO)NC(=O)[C@@H](NC(=O)[C@H](Cc1ccccc1)NC(=O)[C@H](CO)NC(=O)CNC(=O)[C@H](CCC(=O)O)NC(=O)C(C)(C)NC(=O)[C@@H](N)Cc1c[nH]cn1)[C@@H](C)O)[C@@H](C)O)[C@@H](C)CC)C(=O)N[C@@H](CCC(N)=O)C(=O)N[C@@H](C)C(=O)N[C@@H](C)C(=O)N[C@@H](CCCNC(=N)N)C(=O)N[C@@H](CC(=O)O)C(=O)N[C@@H](Cc1ccccc1)C(=O)N[C@H](C(=O)N[C@@H](C)C(=O)N[C@@H](Cc1c[nH]c2ccccc12)C(=O)N[C@@H](CC(C)C)C(=O)N[C@@H](CCC(N)=O)C(=O)N[C@@H](CCC(N)=O)C(=O)N[C@@H](Cc1c[nH]cn1)C(=O)N[C@@H](CCCCN)C(=O)N[C@H](C(=O)N[C@H](C(=O)N[C@@H](CC(=O)O)C(=O)O)[C@@H](C)O)[C@@H](C)CC)[C@@H](C)CC

Each binder was assayed against human glucagon-like peptide 1 receptor (GLP-1 R) (human, UniProt P43220 24-463) (assay: cell-based or functional assay).

EC50 GLP-1 (nM); cAMP response [nM] | Binder
0.36 | B1
3.9 | B2
0.31 | B3
0.27 | B4
0.31 | B5
0.38 | B6

What follows are binders tested against T1, human GLP-2 receptor (hGLP2-R) (assay: cell-based or functional assay).

EC50 GLP-2 (nM); cAMP response [nM] | Binder
0.51 | B1
0.28 | B2
0.29 | B3
0.24 | B4
0.38 | B5
0.46 | B6

— patent US20200297818A1 (ZEALAND PHARMA A S, published 2020)
